Test results taken from paper PMC8065639.

Target: T1, GST-PA14_51020-His (antitoxin) (Pseudomonas aeruginosa PA14) (UniProt A0A0H2Z7N8)
T1 sequence: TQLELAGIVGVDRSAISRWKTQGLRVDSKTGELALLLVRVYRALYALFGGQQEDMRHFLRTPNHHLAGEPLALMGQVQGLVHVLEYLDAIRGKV
Assay: EMSA

Sequence	binding
CGGGCTGGAAGGTGGAGCGGGGAATCCGTCTGCAGGCGCCGCCTTTCTCCGATCACGAGGCTGCGCTGACCGACATCGCCGACTACCGCGCTCCCCAGGAACTGGGGAGTGCCATGCGCAGCGCCGGGGTGCAGGCATTCGAATACCGTTCGGCGCGTTGCCCGGAGCGCGGCTGCAATGTCGCCCTGTTCACGCCCGCG (double strand) [PA14_51010 coding region internal fragment]	no binding
GTTTTTCTCTCTATCACGCCGGTCAATGCTTGCGCGTGGTTCTCTAGGTTCGACCGAATCAAGGTGTGTTTTCAGCAAAATAATGATAGTTTGTTGTAAACACACATGAGGAGGTCGTCATGAGCGCTCTCATCAAGGAACGTCCCAGCGCCGATGCTGTCCTGGCCAAGGCCGTCCTGGCCGCGCGCGAGCAATTGGGG (double strand) [PA14_51020 upstream (operon promoter) fragment]	binds
